In patent publication US10350264B2, “Compositions and methods for modulating NCOA4-mediated autophagic targeting of ferritin” (Dana-Farber Cancer Institute, Inc., priority 2014, dated 2019):
Ends that are not written are not given here.

What was measured:
8988T cells = assay: NCOA4 protein levels while blocking autophagic flux (immunoblot); format: cell-based, human; conditions: CQ or BAF 8 hours, FIG. 2(c)
[1] = target: T1, apo-ferritin purified from equine spleen (Equus caballus, UniProt Q8MIP0); assay: GST pull-down assay of ferritin using GST-NCOA4 fragments; format: binding; conditions: anti-FTH1 immunoblot, FIGS. 7, 8, 11
T1 construct: apo-ferritin purified from equine spleen; purchased Sigma F4503; host or cells: equine spleen
T1 sequence (Q8MIP0 whole entry, the tested form may be a part): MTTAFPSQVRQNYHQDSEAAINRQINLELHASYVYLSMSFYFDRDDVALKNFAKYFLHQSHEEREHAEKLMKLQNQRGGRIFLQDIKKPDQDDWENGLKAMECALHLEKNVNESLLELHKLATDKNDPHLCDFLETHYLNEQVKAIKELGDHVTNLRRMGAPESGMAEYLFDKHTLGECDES
T1 sequence (P02791 2-175 partner limits assumed): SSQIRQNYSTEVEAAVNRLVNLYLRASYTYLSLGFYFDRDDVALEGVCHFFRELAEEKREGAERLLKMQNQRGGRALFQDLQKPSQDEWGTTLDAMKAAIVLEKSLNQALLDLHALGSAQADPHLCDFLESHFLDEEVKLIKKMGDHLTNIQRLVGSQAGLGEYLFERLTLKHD
Source text: GST-tagged NCOA4 constructs were also made to probe the interactions of C-terminal portions of NCOA4 with ferritin. NCOA4-truncation constructs were produced using Gateway cloning (Invitrogen, Life Technologies, catalog #11789-013 and 11791-019) into a pDEST60 N-terminal GST fusion plasmid (GST-NCOA4) from EMD Millipore (Gateway Nova pET-60-DEST, product #71851-3) and transformed in E. coli BL21 (DE3) cells (New England Biosciences, C2527I).
NCOA4 truncation constructs were designed based on NCBI reference sequence: NP_001138735.1 (SEQ ID NO: 4). In particular, fragments of SEQ ID NO: 4 consisting of amino acids (aa) 1-245, aa 235-614, aa 235-560, aa 235-401, aa 383-560, aa 545-614, aa 383-522, aa 510-560, aa 383-436, aa 436-485, aa 475-522, aa 475-500, aa 480-500, aa 480-504, aa 485-509, aa 490-514, aa 495-522 were designed. Protein expression in the DE3 cells was induced with 1 mM isopropyl-beta-D-thiogalactopyranoside (IPTG) (Sigma, I6758-10 G) for 3 hours at 37° C. Cells were collected by centrifugation, re-suspended in 25 mM Tris-HCl (pH 7.4), 10% (w/v) sucrose and lysed with a single freeze-thaw cycle followed by sonication. After centrifugation, a GST pull-down assay was performed.
In the GST pull-down assay, lysates were incubated with 10 μl of a 50% (v/v) slurry of glutathione Sepharose 4B beads (GE Healthcare Lifesciences, 17-0756-01) for 30 minutes at 4° C. Beads were washed thoroughly with 150 mM NaCl, 20 mM Tris (pH 7.4), 2 mM dithiothreitol (DTT), 0.5% (w/v) Nonidet P-40, leaving 50-100 μg of GST-fusion protein bound to the beads. Beads were then mixed with 0.5-2 μg of apo-ferritin purified from equine spleen (Sigma F4503) or recombinant human FTH1 or FTL produced in Rosetta E. coli (EMD Millipore, 70953-3). The assay mix was incubated for 2 hours at 4° C., and beads were washed four times with 1 ml wash buffer. Proteins were eluted with SDS sample buffer and analyzed by 4-20% gradient SDS-PAGE and immunoblotting with anti-FTH1 antibody (as above) or anti-FLAG antibody (Sigma, F1804-200 UG). Pounceau stain was used to visualize GST-NCOA4 bands. (Pounceau, Sigma, P7170-1 L, protocol as per product manual).

[2] = target: T2, HERC2-FLAG fragment (F3, HERC2 amino acids 1700-2700) (Homo sapiens, UniProt O95714); assay: GST pull-down assay of HERC2-FLAG Fragment 3 using GST-NCOA4 fragments; format: binding; conditions: 293T lysate expressing HERC2-FLAG F3, anti-FLAG immunoblot; FIG. 12
T2 construct: HERC2-FLAG fragment (F3, HERC2 amino acids 1700-2700) was produced as described in Bekker-Jensen et al; expressed in transfected cells; host or cells: 293T cells (transient transfection, lysate used)
T2 sequence (O95714 1700-2700): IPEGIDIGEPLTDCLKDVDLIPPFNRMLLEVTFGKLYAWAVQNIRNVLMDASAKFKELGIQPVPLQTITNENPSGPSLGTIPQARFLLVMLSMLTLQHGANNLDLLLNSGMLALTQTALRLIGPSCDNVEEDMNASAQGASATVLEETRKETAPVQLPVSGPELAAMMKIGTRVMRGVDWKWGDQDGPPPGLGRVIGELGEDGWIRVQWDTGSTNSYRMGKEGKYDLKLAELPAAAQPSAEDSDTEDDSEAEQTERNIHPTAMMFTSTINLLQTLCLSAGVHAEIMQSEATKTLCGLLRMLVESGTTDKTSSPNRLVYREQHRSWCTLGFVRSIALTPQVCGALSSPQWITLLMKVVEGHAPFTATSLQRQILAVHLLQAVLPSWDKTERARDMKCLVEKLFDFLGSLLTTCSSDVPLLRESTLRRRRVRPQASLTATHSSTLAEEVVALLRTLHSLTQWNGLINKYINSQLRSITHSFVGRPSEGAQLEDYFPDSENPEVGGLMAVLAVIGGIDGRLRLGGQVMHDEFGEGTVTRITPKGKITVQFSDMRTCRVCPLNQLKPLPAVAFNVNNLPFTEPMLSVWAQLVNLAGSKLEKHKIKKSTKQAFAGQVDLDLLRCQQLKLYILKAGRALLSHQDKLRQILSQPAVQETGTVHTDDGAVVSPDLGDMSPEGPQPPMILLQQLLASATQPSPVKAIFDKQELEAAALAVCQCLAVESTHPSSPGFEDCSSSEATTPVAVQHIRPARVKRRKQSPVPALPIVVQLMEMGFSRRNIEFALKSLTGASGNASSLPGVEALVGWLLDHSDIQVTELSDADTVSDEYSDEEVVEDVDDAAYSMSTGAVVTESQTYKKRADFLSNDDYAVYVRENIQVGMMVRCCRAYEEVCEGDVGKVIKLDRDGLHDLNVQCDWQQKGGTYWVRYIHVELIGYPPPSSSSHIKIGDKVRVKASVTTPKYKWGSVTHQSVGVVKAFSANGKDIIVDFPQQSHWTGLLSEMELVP
Method: To map the interaction of NCOA-4 with HERC2, the GST-NCOA4 truncation constructs described above were also tested in a GST pull-down assay with HERC2-FLAG expressing 293T cell line. HERC2-FLAG fragment (F3, HERC2 amino acids 1700-2700) was produced as described in Bekker-Jensen et al., Nature Cell Biology (2010) 12; 80-86. The HERC2-FLAG F3 was transiently transfected into 293T cells using standard transfection procedures using PEI (Polysciences, #23966-2).
Lysates were obtained, as above, and incubated with 10 μl of a 50% (v/v) slurry of glutathione Sepharose 4B beads for 30 minutes at 4° C. Beads were washed thoroughly with 150 mM NaCl, 20 mM Tris (pH 7.4), 2 mM DTT, 0.5% (w/v) Nonidet P-40, leaving 50-100 μg of GST-fusion protein bound to the beads. Beads were then mixed with 300 μg of lysate from a HERC2-FLAG expressing 293T cell line, as above. The assay mix was incubated for 2 hours at 4° C., and beads were washed four times with 1 ml wash buffer. Proteins were eluted with SDS sample buffer and analyzed by 4-20% gradient SDS-PAGE and immunoblotting with anti-HERC2 antibody or anti-FLAG antibody, as above. Coomassie stain was used to visualize GST-NCOA4 bands as above.

[3] = target: T3, ferritin purified from horse spleen (mixture of FTH1 and FTL subunits) (Equus caballus, UniProt Q8MIP0); assay: anti-MYC immunoprecipitation of in vitro translated MYC-NCOA4 constructs incubated with ferritin; format: binding; conditions: anti-MYC IP, anti-FTH1 immunoblot, FIG. 5
T3 construct: ferritin purified from horse spleen; purchased Sigma A3641-100 mg; host or cells: horse spleen
T3 sequence (Q8MIP0 whole entry): as the sequence (Q8MIP0 whole entry, the tested form may be a part) above
T3 sequence (P02791 2-175 partner limits assumed): as the sequence (P02791 2-175 partner limits assumed) above
Method: To probe the interaction between ferritin and NCOA4, initial binding assays using MYC-tagged NCOA4 full-length and truncation constructs produced using an in vitro translation (“IVT”) system were conducted. MYC-NCOA4 fragments were cloned using PCR into a modified T7 cell-free expression vector (pT7CFE1-NMyc, #88863, Thermo Scientific). 1-Step Human Coupled IVT Kit—DNA from Thermo Scientific (product #88881) was used to produce MYC-tagged NCOA4 constructs as described in the product manual. Apoferritin (Sigma, A3641-100 mg) was added in a pull-down assay using anti-c-Myc Agarose Affinity Gel antibody produced in rabbit (Sigma, A7470-1 ML). Affinity purification reactions were washed thoroughly with 150 mM NaCl, 20 mM Tris (pH 7.4), and 2 mM dithiothreitol. Proteins were eluted with SDS sample buffer and analyzed by 4-20% gradient SDS-PAGE and immunoblotting with anti-FTH1 antibody (Cell Signaling 3998; Western blot 1:1,000) or anti-MYC antibody (Santa Cruz Sc-40; western blot 1:1,000).
The full-length, N-terminal (amino acids (aa) 1-245 of SEQ ID NO: 4) and C-terminal (aa 235-614 of SEQ ID NO:4) MYC-NCOA4 were incubated with ferritin purified from horse spleen (Apoferritin (Sigma, A3641-100 mg), consisting of a mixture of FTH1 and FTL subunits) and anti-MYC immunoprecipitation was performed followed by immunoblotting as described above.

CO/C1=C\C(C)=C\[C@@H](C)[C@@H](O)[C@@H](C)C/C(C)=C/C=C/[C@H](OC)[C@@H]([C@@H](C)[C@@H](O)[C@H](C)[C@@]2(O)C[C@@H](O)[C@H](C)[C@@H](C(C)C)O2)OC1=O [Bafilomycin A1 (BAF), Bafilomycin A1]
NCOA4 protein levels (8988T cells): markedly increased

SFQVIKNSPLSEWLIRPPYKEGSPK (Homo sapien) [aa 485-509]
binding of GST-NCOA4 fragment to ferritin [1]: bound to ferritin

SMVTEDWLVQNHQDPCKVEEVCRANEPCTSFAECVCDENCEKEALYKWLLKKEG (Homo sapien) [aa 383-436]
binding of GST-NCOA4 fragment to HERC2-FLAG [2]: bound to HERC2-FLAG

aa 1-614: full-length human NCOA4 (NP_001138735.1), in vitro translated
association of MYC-NCOA4 construct with ferritin [3]: associated with ferritin | association of MYC-NCOA4 construct with ferritin ([3]; listed as Full-length NCOA4): bind to ferritin

aa 555-614: printed as C-terminal MYC-NCOA4; probably only the C-terminal part of NCOA4B ({MYC tag}-GEDKWLLRKKAQEVLLNSPLQEEHNFPPDHYGLPAVCDLFACMQLKVDKEKWLYRTPLQM; cysteine pairing not given here)
association of MYC-NCOA4 construct with ferritin [3]: associated with ferritin

B1: aa 383-560: fragment of NCOA4 SEQ ID NO: 4 (protein)
chain: SMVTEDWLVQNHQDPCKVEEVCRANEPCTSFAECVCDENCEKEALYKWLLKKEGKDKNGMPVEPKPEPEKHKDSLNMWLCPRKEVIEQTKAPKAMTPSRIADSFQVIKNSPLSEWLIRPPYKEGSPKEVPGTEDRAGKQKFKSPMNTSWCSFNTADWVLPGKKMGNLSQLSSGEDKWL
modifications: Homo sapien
binding of GST-NCOA4 fragment to ferritin [1]: bound to ferritin | binding of GST-NCOA4 fragment to HERC2-FLAG [2]: binds to HERC2 fragment

B2: aa 235-560: fragment of NCOA4 SEQ ID NO: 4 (protein)
chain: ENSQTSSRACNFFNNVGGNLKGLENWLLKSEKSSYQKCNSHSTTSSFSIEMEKVGDQELPDQDEMDLSDWLVTPQESHKLRKPENGSRETSEKFKLLFQSYNVNDWLVKTDSCTNCQGNQPKGVEIENLGNLKCLNDHLEAKKPLSTPSMVTEDWLVQNHQDPCKVEEVCRANEPCTSFAECVCDENCEKEALYKWLLKKEGKDKNGMPVEPKPEPEKHKDSLNMWLCPRKEVIEQTKAPKAMTPSRIADSFQVIKNSPLSEWLIRPPYKEGSPKEVPGTEDRAGKQKFKSPMNTSWCSFNTADWVLPGKKMGNLSQLSSGEDKWL
modifications: Homo sapien
binding of GST-NCOA4 fragment to ferritin [1]: bound to ferritin

B3: N-terminal MYC-NCOA4: NCOA4 N-terminal fragment, amino acids 1-245 of SEQ ID NO: 4 (protein)
chain: MNTFQDQSGSSSNREPLLRCSDARRDLELAIGGVLRAEQQIKDNLREVKAQIHSCISRHLECLRSREVWLYEQVDLIYQLKEETLQQQAQQLYSLLGQFNCLTHQLECTQNKDLANQVSVCLERLGSLTLKPEDSTVLLFEADTITLRQTITTFGSLKTIQIPEHLMAHASSANIGPFLEKRGCISMPEQKSASGIVAVPFSEWLLGSKPASGYQAPYIPSTDPQDWLTQKQTLENSQTSSRACN
modifications: N-terminal MYC tag; Homo sapien
association of MYC-NCOA4 construct with ferritin [3]: did not associate with ferritin

B4: NCOAB: naturally occurring transcript variant of NCOA4 consisting of amino acids 1-238 and 555-614 (protein)
chain: MNTFQDQSGSSSNREPLLRCSDARRDLELAIGGVLRAEQQIKDNLREVKAQIHSCISRHLECLRSREVWLYEQVDLIYQLKEETLQQQAQQLYSLLGQFNCLTHQLECTQNKDLANQVSVCLERLGSLTLKPEDSTVLLFEADTITLRQTITTFGSLKTIQIPEHLMAHASSANIGPFLEKRGCISMPEQKSASGIVAVPFSEWLLGSKPASGYQAPYIPSTDPQDWLTQKQTLENSQGEDKWLLRKKAQEVLLNSPLQEEHNFPPDHYGLPAVCDLFACMQLKVDKEKWLYRTPLQM
modifications: left off: small tags and cut ends
association of MYC-NCOA4 construct with ferritin [3]: did not bind ferritin
